Here are results for 30 molecules from patent US20240116985A1, “STAPLED PEPTIDES AND METHODS THEREOF” (priority 2020, published 2024).

B1: I-773 (peptide)
peptide: Ac-[αAllylPro]D[tBuAla][B5(13)]DDAAFN[SeN][3Thi][Bta]H-NH2
modifications: staple 1-4, 4-11
B2: I-774 (peptide)
peptide: Ac-[αAllylPro]D[tBuAla][B5(13)]DDAAFN[SeN][3Thi][Bta]H-NH2
modifications: staple 1-4, 4-11
B3: I-779 (peptide)
peptide: Ac-[αAllylPro]D[tBuAla][B5(13)]DDAAFN[PyrS2][2Thi][Bta]H-NH2
modifications: staple 1-4, 4-11
B4: I-776 (peptide)
peptide: Ac-[αAllylPro]D[tBuAla][B5(13)]DDAAFN[PyrS3][3Thi][Bta]H-NH2
modifications: staple 1-4, 4-11
B5: I-856 (peptide)
peptide: Ac-[αAllylPro]D[tBuAla][B5(12)]DNAAFL[PyrS2][3Thi][Bta]Q-NH2
modifications: staple 1-4, 4-11
B6: I-845 (peptide)
peptide: Ac-[αAllylPro]D[tBuAla][B5(4)]DTAAFN[PyrS2][3Thi][Bta]H-NH2
modifications: staple 1-4, 4-11
B7: I-843 (peptide)
peptide: Ac-[αAllylPro]D[tBuAla][B5(4)]DYAAFN[PyrS2][3Thi][Bta]H-NH2
modifications: staple 1-4, 4-11
B8: I-855 (peptide)
peptide: Ac-[αAllylPro]D[tBuAla][B5(12)]DNAAFF[PyrS2][3Thi][Bta]Q-NH2
modifications: staple 1-4, 4-11
B9: I-682 (peptide)
peptide: Ac-[αAllylPro]D[tBuAla][B5(4)]DEAAFN[S8][3Thi][Bta]Q-NH2
modifications: staple 1-4, 4-11; not fully specified
B10: I-782 (peptide)
peptide: Ac-[αAllylPro]D[tBuAla][B5(13)]DDAAFN[PyrS2][Phe(2-Me)][Bta]H-NH2
modifications: staple 1-4, 4-11
B11: I-788 (peptide)
peptide: Ac-[αAllylPro]D[hLeu][B5(3)]DDAAFN[PyrS2][3Thi][Bta]H-NH2
modifications: staple 1-4, 4-11
B12: I-804 (peptide)
peptide: Ac-[αAllylPro]D[tBuAla][B5(3)]DDAAF[hSer][PyrS2″][3Thi][Bta]H-NH2
modifications: staple 1-4, 4-11
B13: I-806 (peptide)
peptide: Ac-[αAllylPro]D[tBuAla][B5(3)]DDAAF[Cit][PyrS2″][3Thi][Bta]H-NH2
modifications: staple 1-4, 4-11
B14: I-794 (peptide)
peptide: Ac-[αAllylPro]D[tBuAla][B5]DDAAFN[PyrS2][1Nal][Bta]H-NH2
modifications: staple 1-4, 4-11
B15: I-798 (peptide)
peptide: Ac-[αAllylPro]D[tBuAla][B5]DDAAFN[PyrS2][3Thi][Trp(6-Cl)]H-NH2
modifications: staple 1-4, 4-11
B16: I-795 (peptide)
peptide: Ac-[αAllylPro]D[tBuAla][B5]DDAAFN[PyrS2][2Nal][Bta]H-NH2
modifications: staple 1-4, 4-11
B17: I-805 (peptide)
peptide: Ac-[αAllylPro]D[tBuAla][B5(3)]DDAAF[Cit][PyrS2″][3Thi][Bta]Q-NH2
modifications: staple 1-4, 4-11
B18: I-1019: Ac-PL3-Asp-Npg-B5-Asp-Asp-Ala-Ala-Phe-Ser-PyrS2-2C1F-BztA-Ser-NH2 (peptide)
peptide: Ac-[αAllylPro]D[tBuAla][B5(16)]DDAAFS[PyrS2″][Phe(2-Cl)][Bta]S-NH2
modifications: staple 1-4, 4-11; not fully specified; printed as Ac-PL3-Asp-Npg-B5-Asp-Asp-Ala-Ala-Phe-Ser-PyrS2-2C1F-BztA-Ser-NH2
B19: I-802 (peptide)
peptide: Ac-[αAllylPro]D[tBuAla][B5]DDAAFL[PyrS2][3Thi][Bta]H-NH2
modifications: staple 1-4, 4-11
B20: I-412 (peptide)
peptide: Ac-[αAllylPro]DI[B5(3)]DEAA[2Thi]Q[S8][Phe(3-F)][Bta]Q-NH2
modifications: staple 1-4, 4-11
B21: I-430 (peptide)
peptide: Ac-[αAllylPro]DA[B5(4)]DEAA[3Thi]Q[S8][Phe(3-F)][Bta]H-NH2
modifications: staple 1-4, 4-11
B22: I-432 (peptide)
peptide: Ac-[αAllylPro]DA[B5(4)]DEAAFN[S8]F[Bta]-NH2
modifications: staple 1-4, 4-11
B23: I-413 (peptide)
peptide: Ac-[αAllylPro]DA[B5(3)]D[Ala(1H-tetrazol-5-yl)]AAFQ[S8]F[Bta]Q-NH2
modifications: staple 1-4, 4-11
B24: I-429 (peptide)
peptide: Ac-[αAllylPro]DA[B5(4)]DEAA[3Thi]Q[S8][Phe(3-F)][Bta]Q-NH2
modifications: staple 1-4, 4-11
B25: I-417 (peptide)
peptide: Ac-[αAllylPro][Ala(1H-tetrazol-5-yl)]A[B5(3)]DEAAFQ[S8]F[Bta]Q-NH2
modifications: staple 1-4, 4-11; also: staple isomer composition, later eluting HPLC peak
B26: I-426 (peptide)
peptide: Ac-[αAllylPro]DA[B5(3)]DEAAFQ[S8][3Thi][Bta]Q-NH2
modifications: staple 1-4, 4-11; also: staple isomer composition, earlier eluting HPLC peak
B27: I-431 (peptide)
peptide: Ac-[αAllylPro]DA[B5(4)]DEAA[3Thi]Q[S8][Phe(3-F)][Bta]-NH2
modifications: staple 1-4, 4-11
B28: I-428 (peptide)
peptide: Ac-[αAllylPro]DA[B5(4)]DEAAFQ[S8][2Thi][Bta]Q-NH2
modifications: staple 1-4, 4-11
B29: I-416 (peptide)
peptide: Ac-[αAllylPro][Ala(1H-tetrazol-5-yl)]A[B5(3)]DEAAFQ[S8]F[Bta]Q-NH2
modifications: staple 1-4, 4-11; also: staple isomer composition, earlier eluting HPLC peak
B30: I-427 (peptide)
peptide: Ac-[αAllylPro]DA[B5(4)]DEAAFQ[S8][3Thi][Bta]Q-NH2
modifications: staple 1-4, 4-11; also: staple isomer composition, later-eluting HPLC peak

Starred links: 1 amine or outer side, 2 acyl side, 3 side chain; linkers in the order of their positions; H or OH if unused. Positions of bridges follow the written chain, without caps; N, C: chain ends. Non-standard residues stand in square brackets, D forms with d. Primed or numbered codes have the meaning given here. PyrS2″ = (S)-3-amino-1-((pent-4-en-1-yloxy)carbonyl)pyrrolidine-3-carboxylic acid (stapling residue), C=CCCCOC(=O)N1CC[C@@](N[*:1])(C(=O)[*:2])C1; B5(16) = 2-amino-2-(pent-4-en-1-yl)hept-6-enoic acid = 2,2-bis(4-pentenyl)glycine (stitching residue), C=CCCCC(CCCC=C)(N[*:1])C(=O)[*:2]; B5(4) = 2,2-bis(4-pentenyl)glycine = 2-amino-2-(pent-4-en-1-yl)hept-6-enoic acid (stitching residue), C=CCCCC(CCCC=C)(N[*:1])C(=O)[*:2]; B5(5) = 2,2-bis(4-pentenyl)glycine, 2-amino-2-(pent-4-en-1-yl)hept-6-enoic acid (stitching residue), C=CCCCC(CCCC=C)(N[*:1])C(=O)[*:2]; PyrS2 = (S)-3-amino-1-((pent-4-en-1-yloxy)carbonyl)pyrrolidine-3-carboxylic acid, C=CCCCOC(=O)N1CC[C@@](N[*:1])(C(=O)[*:2])C1; PyrS3 = (S)-3-amino-1-((hex-5-en-1-yloxy)carbonyl)pyrrolidine-3-carboxylic acid, C=CCCCCOC(=O)N1CC[C@@](N[*:1])(C(=O)[*:2])C1; SeN = (S)-5-(((allyloxy)carbonyl)(methyl)amino)-2-amino-2-methylpentanoic acid, C=CCOC(=O)N(C)CCC[C@](C)(N[*:1])C(=O)[*:2]; B5(12) = 2-amino-2-(pent-4-en-1-yl)hept-6-enoic acid (two olefin side chains), C=CCCCC(CCCC=C)(N[*:1])C(=O)[*:2]; B5(13) = 2-amino-2-(pent-4-en-1-yl)hept-6-enoic acid (two alkene chains), C=CCCCC(CCCC=C)(N[*:1])C(=O)[*:2]; B5(3) = 2,2-bis(4-pentenyl)glycine (stitching residue), C=CCCCC(CCCC=C)(N[*:1])C(=O)[*:2]; B5 = 2-amino-2-(pent-4-en-1-yl)hept-6-enoic acid, C=CCCCC(CCCC=C)(N[*:1])C(=O)[*:2]; Ala(1H-tetrazol-5-yl) = N[C@@H](Cc1nnn[nH]1)C(=O)O; Trp(6-Cl) = N[C@@H](Cc1c[nH]c2cc(Cl)ccc12)C(=O)O; Phe(2-Cl) = N[C@@H](Cc1ccccc1Cl)C(=O)O; Phe(3-F) = N[C@@H](Cc1cccc(F)c1)C(=O)O; 1Nal = N[C@@H](Cc1cccc2ccccc12)C(=O)O; 2Nal = N[C@@H](Cc1ccc2ccccc2c1)C(=O)O; Phe(2-Me) = Cc1ccccc1C[C@H](N)C(=O)O; Bta = N[C@@H](Cc1csc2ccccc12)C(=O)O; αAllylPro = C=CC[C@@]1(C(=O)O)CCCN1; tBuAla = CC(C)(C)C[C@H](N)C(=O)O; 2Thi = N[C@@H](Cc1cccs1)C(=O)O; 3Thi = N[C@@H](Cc1ccsc1)C(=O)O; Cit = NC(=O)NCCC[C@H](N)C(=O)O; S8 = C=CCCCCCC[C@](C)(N)C(=O)O; hLeu = CC(C)CC[C@H](N)C(=O)O; hSer = N[C@@H](CCO)C(=O)O

One test has as its target full-length beta-Catenin (Uniprot ID P35222) (Homo sapiens (Human)) (UniProt P35222). The test is described as follows: fluorescence polarization competition; full-length beta-catenin, competitor 5FAM-TCF4(10-53) probe. (In general: In fluorescence polarisation assays a small probe gives low polarisation when free and higher when bound to something large.)
Target sequence in this assay (P35222 2-781 limits assumed): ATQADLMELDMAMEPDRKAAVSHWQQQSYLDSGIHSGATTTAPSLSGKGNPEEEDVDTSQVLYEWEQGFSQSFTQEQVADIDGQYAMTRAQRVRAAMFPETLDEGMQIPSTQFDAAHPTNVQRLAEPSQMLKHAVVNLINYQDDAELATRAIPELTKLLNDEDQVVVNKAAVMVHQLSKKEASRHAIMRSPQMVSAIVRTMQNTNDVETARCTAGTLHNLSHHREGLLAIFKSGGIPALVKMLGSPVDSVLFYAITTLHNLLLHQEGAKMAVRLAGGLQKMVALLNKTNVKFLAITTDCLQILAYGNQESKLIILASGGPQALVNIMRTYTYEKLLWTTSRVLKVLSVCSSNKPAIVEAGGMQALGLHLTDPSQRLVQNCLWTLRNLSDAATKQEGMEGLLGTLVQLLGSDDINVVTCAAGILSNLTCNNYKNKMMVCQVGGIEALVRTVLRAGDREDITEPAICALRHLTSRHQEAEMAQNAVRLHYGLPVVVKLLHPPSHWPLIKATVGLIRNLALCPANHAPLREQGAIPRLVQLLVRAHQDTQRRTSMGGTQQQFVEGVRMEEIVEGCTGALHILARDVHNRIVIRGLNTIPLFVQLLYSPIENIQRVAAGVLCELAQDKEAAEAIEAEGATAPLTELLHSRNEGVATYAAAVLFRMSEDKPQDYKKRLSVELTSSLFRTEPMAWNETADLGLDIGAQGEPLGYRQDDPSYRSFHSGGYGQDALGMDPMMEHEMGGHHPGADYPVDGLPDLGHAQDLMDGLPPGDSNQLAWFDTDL
The EC50 is the concentration that produces a half-maximal response. B1 yielded an EC50 of 0.167 µM. Turning to B2, the EC50 amounted to 0.038 µM.

The molecule B3 registered an EC50 of 0.005 µM.

In turn, B4 displayed a concentration giving a half-maximal response (EC50) of 0.005 µM.

Another test shares this target. The test is described as follows: fluorescence polarization competition; displacement of 5FAM-TCF4(10-53) from full-length beta-catenin.
Target sequence in this assay (P35222 whole entry): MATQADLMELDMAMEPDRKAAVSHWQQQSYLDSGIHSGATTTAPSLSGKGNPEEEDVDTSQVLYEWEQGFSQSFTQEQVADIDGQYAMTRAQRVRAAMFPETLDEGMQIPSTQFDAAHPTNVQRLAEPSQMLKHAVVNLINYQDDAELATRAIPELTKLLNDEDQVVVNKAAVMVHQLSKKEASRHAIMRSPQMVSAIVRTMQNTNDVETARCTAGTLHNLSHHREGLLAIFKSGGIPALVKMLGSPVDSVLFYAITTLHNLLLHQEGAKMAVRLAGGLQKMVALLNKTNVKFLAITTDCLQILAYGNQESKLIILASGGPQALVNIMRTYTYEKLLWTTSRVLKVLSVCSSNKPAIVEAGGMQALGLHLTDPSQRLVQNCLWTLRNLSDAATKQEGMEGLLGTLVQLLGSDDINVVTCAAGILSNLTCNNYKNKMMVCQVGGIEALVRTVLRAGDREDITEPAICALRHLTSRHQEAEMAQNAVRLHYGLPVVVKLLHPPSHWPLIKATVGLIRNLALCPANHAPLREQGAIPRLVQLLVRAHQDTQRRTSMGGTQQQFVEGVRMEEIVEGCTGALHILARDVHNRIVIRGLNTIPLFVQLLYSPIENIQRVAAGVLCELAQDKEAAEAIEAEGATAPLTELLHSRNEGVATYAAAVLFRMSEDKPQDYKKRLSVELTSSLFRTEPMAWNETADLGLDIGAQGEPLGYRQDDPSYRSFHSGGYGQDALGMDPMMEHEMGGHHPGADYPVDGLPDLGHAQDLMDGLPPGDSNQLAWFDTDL
Usually IC50 stands for the concentration that inhibits the measured activity by half. B5 registered a 50% inhibitory concentration (IC50) of 0.017 µM. Still for that read-out and setting: in the case of B6 it was 0.007 µM. As for B7, the 50% inhibitory concentration (IC50) came out at 0.154 µM.

The molecule B8 returned a half-maximal inhibitory concentration (IC50) of 0.022 µM.

A further test has the same target. Put plainly: fluorescence polarization competition; full-length beta-catenin; competitor displaced: 5FAM-TCF4 10-53.
Target sequence in this assay (P35222 2-781 limits assumed): as the sequence (P35222 2-781 limits assumed) above
In the case of B9, the IC50 came to 0.041 µM.

For the next test the target is unchanged. Put plainly: fluorescence polarization competition; peptide displaces 5FAM-TCF4(10-53) from full-length beta-catenin.
Target sequence in this assay (P35222 2-781 limits assumed): as above
The molecule B1 had an IC50 of 0.167 µM. On the same count and under the same terms, next, B2: 0.038 µM; B10: 0.006 µM. On the same count and under the same terms, in the case of B3 it was 0.005 µM. Consider B4, for which the IC50 is 0.005 µM. Same read-out and setting: in the case of B11 it was 0.005 µM.

The target is the same in another test. Put plainly: fluorescence polarization competition; 10 nM full-length beta-catenin with 10 nM 5FAM-TCF4(10-53) probe as competitor.
Target sequence in this assay (P35222 2-781 limits assumed): as above
Molecule B12 showed a half-inhibitory concentration (IC50) of 0.005 µM.

Consider B13, for which the IC50 was found to be 0.005 µM. The same measure, in the same setting: in the case of B14 it was 0.019 µM; in that of B15, 0.106 µM. Still for that read-out and setting: in the case of B16 it was 0.176 µM. Same read-out and setting: next, B17: 0.005 µM; B18: 0.005 µM; B19: 0.006 µM.

The target is the same in another test. Put plainly: fluorescence polarization competition; 10 nM full-length beta-catenin + 10 nM 5FAM-TCF4(10-53) probe, peptide titrated.
Target sequence in this assay (P35222 2-781 limits assumed): as above
As for B20, the EC50 is 0.092 µM. On to B21, for which the EC50 amounted to 0.154 µM. On the same count and under the same terms, in the case of B22 it was 0.145 µM; in that of B23, 0.09 µM; in that of B24, 0.146 µM.

Regarding B25, the EC50 amounted to 5 µM.

As to B26, the 50% effective concentration (EC50) was determined as 0.109 µM. For the molecule B27, the EC50 was determined as 1.32 µM. Still for that read-out and setting: next, B28: 0.06 µM; B29: 5 µM.

As for B30, the EC50 was found to be 0.0385 µM.

The target is the same in the next test. The test is described as follows: fluorescence polarization competition: peptide titrated against 10 nM full-length beta-catenin + 10 nM 5FAM-TCF4(10-53) probe.
Target sequence in this assay (P35222 2-781 limits assumed): as above
On to B12, for which the EC50 stood at 0.005 µM. With B13, the EC50 stood at 0.005 µM. The same measure, in the same setting: in the case of B10 it was 0.006 µM; in that of B14, 0.019 µM; in that of B11, 0.005 µM. For B15, the 50% effective concentration (EC50) is 0.106 µM. On the same count and under the same terms, in the case of B16 it was 0.176 µM; in that of B17, 0.005 µM.

With B19, the EC50 came to 0.006 µM.

The next test has the same target. Put plainly: fluorescence polarization competition; peptide titrated against 10 nM full-length beta-catenin + 10 nM 5FAM-TCF4(10-53) probe.
Target sequence in this assay (P35222 whole entry): as the sequence (P35222 whole entry) above
With B20, the 50% inhibitory concentration (IC50) was 0.092 µM. Still for that read-out and setting: in the case of B21 it was 0.154 µM; in that of B22, 0.145 µM; in that of B23, 0.09 µM.

With B24, the IC50 came out at 0.146 µM.

For the molecule B25, the IC50 was 5 µM. In the case of B26, the IC50 turned out to be 0.109 µM. Take B27: the IC50 amounted to 1.32 µM. In the case of B28, the IC50 turned out to be 0.06 µM. Take B29: the IC50 worked out at 5 µM. Regarding B30, the IC50 was 0.0385 µM.

Another test has the same target. The test is described as follows: fluorescence polarization competition; 10 nM full-length beta-catenin with 10 nM 5FAM-TCF4 (residues 10-53) probe as competitor.
For B5, the EC50 amounted to 0.017 µM. Still for that read-out and setting: next, B6: 0.007 µM.

B7 registered an EC50 of 0.154 µM.

Molecule B8 displayed an EC50 of 0.022 µM.
